Results on one molecule are retold here after paper PMC5998137, “Regulation of the β-hemolysin gene cluster of Streptococcus anginosus by CcpA”.

For this data set, the target named is CcpA (Streptococcus anginosus, UniProt A0A412PPL7 1-334). The data set can be described thus: EMSA; 0.5-8 µg CcpA, 5 pmol probe; no HPr or fructose-1,6-bisphosphate; 500-fold unlabeled creC inhibits the shift. As to conditions: protein: recombinant; tags: N-terminal His6; chain copies: 2; label: 5' IRDye700 on strand 1 (probe); blunt. In general terms: In EMSA bound probe runs differently from free probe, usually more slowly.

B1: creC (dsDNA)
DNA 1: GTTTACGCGAAAGCGCTTTTTTTATATA
DNA 2: TATATAAAAAAAGCGCTTTCGCGTAAAC
As for B1, the binding result is listed as “binds”.
